# Assay results: IntAct's records for PubMed 29892012
# B1: Transmembrane protein 218 (Homo sapiens), A2RU14 (parent)
# chain: MAGTVLGVGAGVFILALLWVAVLLLCVLLSRASGAARFSVIFLFFGAVIITSVLLLFPRAGEFPAPEVEVKIVDDFFIGRYVLLAFLSAIFLGGLFLVLIHYVLEPIYAKPLHSY
# B2: Protein VAC14 homolog (Homo sapiens), Q08AM6 (parent)
# chain: MNPEKDFAPLTPNIVRALNDKLYEKRKVAALEIEKLVREFVAQNNTVQIKHVIQTLSQEFALSQHPHSRKGGLIGLAACSIALGKDSGLYLKELIEPVLTCFNDADSRLRYYACEALYNIVKVARGAVLPHFNVLFDGLSKLAADPDPNVKSGSELLDRLLKDIVTESNKFDLVSFIPLLRERIYSNNQYARQFIISWILVLESVPDINLLDYLPEILDGLFQILGDNGKEIRKMCEVVLGEFLKEIKKNPSSVKFAEMANILVIHCQTTDDLIQLTAMCWMREFIQLAGRVMLPYSSGILTAVLPCLAYDDRKKSIKEVANVCNQSLMKLVTPEDDELDELRPGQRQAEPTPDDALPKQEGTASGGPDGSCDSSFSSGISVFTAASTERAPVTLHLDGIVQVLNCHLSDTAIGMMTRIAVLKWLYHLYIKTPRKMFRHTDSLFPILLQTLSDESDEVILKDLEVLAEIASSPAGQTDDPGPLDGPDLQASHSELQVPTPGRAGLLNTSGTKGLECSPSTPTMNSYFYKFMINLLKRFSSERKLLEVRGPFIIRQLCLLLNAENIFHSMADILLREEDLKFASTMVHALNTILLTSTELFQLRNQLKDLKTLESQNLFCCLYRSWCHNPVTTVSLCFLTQNYRHAYDLIQKFGDLEVTVDFLAEVDKLVQLIECPIFTYLRLQLLDVKNNPYLIKALYGLLMLLPQSSAFQLLSHRLQCVPNPELLQTEDSLKAAPKSQKADSPSIDYAELLQHFEKVQNKHLEVRHQRSGRGDHLDRRVVL
# partner: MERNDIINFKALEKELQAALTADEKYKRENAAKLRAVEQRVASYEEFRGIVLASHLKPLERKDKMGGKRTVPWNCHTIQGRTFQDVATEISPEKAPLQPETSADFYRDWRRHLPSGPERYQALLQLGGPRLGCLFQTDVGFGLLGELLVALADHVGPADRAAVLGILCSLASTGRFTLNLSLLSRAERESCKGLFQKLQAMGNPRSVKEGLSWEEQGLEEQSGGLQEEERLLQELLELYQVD
# B3: Genetic suppressor element 1 (Homo sapiens), Q14687 (parent)
# chain: MKGMSHEPKSPSLGMLSTATRTTATVNPLTPSPLNGALVPSGSPATSSALSAQAAPSSSFAAALRKLAKQAEEPRGSSLSSESSPVSSPATNHSSPASTPKRVPMGPIIVPPGGHSVPSTPPVVTIAPTKTVNGVWRSESRQDAGSRSSSGGRERLIVEPPLPQEKAGGPAIPSHLLSTPYPFGLSPSSVVQDSRFPPLNLQRPVHHVVPPSTVTEDYLRSFRPYHTTDDLRMSSLPPLGLDPATAAAYYHPSYLAPHPFPHPAFRMDDSYCLSALRSPFYPIPTPGSLPPLHPSAMHLHLSGVRYPPELSHSSLAALHSERMSGLSAERLQMDEELRREREREREREREREADREREKEREREREKEREQEKEREREKERERELERQREQRAREKELLAAKALEPSFLPVAELHGLRGHATEERGKPSEQLTPTRAEKLKDAGLQAPKPVQHPLHPVPTPHHTVPSLISNHGIFSLPSSSAATALLIQRTNEEEKWLARQRRLRQEKEDRQSQVSEFRQQVLEQHLDMGRPPVPAEAEHRPESTTRPGPNRHEPGGRDPPQHFGGPPPLISPKPQLHAAPTALWNPVSLMDNTLETRRAESHSLHSHPAAFEPSRQAAVPLVKVERVFCPEKAEEGPRKREPAPLDKYQPPPPPPREGGSLEHQPFLPGPGPFLAELEKSTQTILGQQRASLPQAATFGELSGPLKPGSPYRPPVPRAPDPAYIYDEFLQQRRRLVSKLDLEERRRREAQEKGYYYDLDDSYDESDEEEVRAHLRCVAEQPPLKLDTSSEKLEFLQLFGLTTQQQKEELVAQKRRKRRRMLRERSPSPPTIQSKRQTPSPRLALSTRYSPDEMNNSPNFEEKKKFLTIFNLTHISAEKRKDKERLVEMLRAMKQKALSAAVADSLTNSPRDSPAVSLSEPATQQASLDVEKPVGVAASLSDIPKAAEPGKLEQVRPQELSRVQELAPASGEKARLSEAPGGKKSLSMLHYIRGAAPKDIPVPLSHSTNGKSKPWEPFVAEEFAHQFHESVLQSTQKALQKHKGSVAVLSAEQNHKVDTSVHYNIPELQSSSRAPPPQHNGQQEPPTARKGPPTQELDRDSEEEEEEDDEDGEDEEEVPKRKWQGIEAVFEAYQEHIEEQNLERQVLQTQCRRLEARHYSLSLTAEQLSHSVAELRSQKQKMVSERERLQAELDHLRKCLALPAMHWPRGYLKGYPR
# Variants of: B1
# Conditions: with pcna_human PCNA
row,effect of a mutation on the interaction,Variant
1,with no effect,P66S

# Variants of: B2
# Conditions: with daa19_human DNAAF19, Q8IW40
row,effect of a mutation on the interaction,Variant
1,with no effect,A127S

# Variants of: B3
# Conditions: with rbpms_human RBPMS
row,effect of a mutation on the interaction,Variant
1,with no effect,E368K

# Variants of: B3
# Conditions: with rcor3_human RCOR3, Q9P2K3
row,effect of a mutation on the interaction,Variant
1,with no effect,E368K

# Variants of: B3
# Conditions: with rbpms_human RBPMS
# Remark: another data set of the same source
row,effect of a mutation on the interaction,Variant
1,with no effect,R503Q

# Variants of: B3
# Conditions: with rcor3_human RCOR3, Q9P2K3
# Remark: another data set of the same source
row,effect of a mutation on the interaction,Variant
1,with no effect,R503Q
